Results published in paper PMC9482650, “Quantitative fragmentomics allow affinity mapping of interactomes” (Nature Communications, 2022).

How the values were obtained:
Experiment in all cases: holdup assay
Parameters in all cases: key: below the threshold = too weak to quantify, mostly under pKd 3.1 to 4
APBA1_1, Q02410 = conditions: plain residues with an end cap or a label only
SCRIB_3, Q14160 = target: SCRIB_3, Q14160
PARD3_3, Q8TEW0 = conditions: plain residues with an end cap or a label only (N-terminal biotin on a linker: ado-ado)
Chain of PARD3_3, Q8TEW0 (Q8TEW0 582-685): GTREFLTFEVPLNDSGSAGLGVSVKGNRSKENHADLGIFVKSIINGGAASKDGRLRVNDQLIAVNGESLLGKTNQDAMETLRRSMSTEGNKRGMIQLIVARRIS

FRMPD4, Q14CM0 = conditions: plain residues with an end cap or a label only (N-terminal biotin on a linker: ado-ado)
Chain of FRMPD4, Q14CM0 (Q14CM0 67-160): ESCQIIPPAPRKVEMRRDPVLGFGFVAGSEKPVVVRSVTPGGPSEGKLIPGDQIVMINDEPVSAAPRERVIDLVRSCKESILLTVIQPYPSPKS

MAGI2_4, Q86UL8 = conditions: plain residues with an end cap or a label only (N-terminal biotin on a linker: ado-ado)
Chain of MAGI2_4, Q86UL8 (Q86UL8 772-865): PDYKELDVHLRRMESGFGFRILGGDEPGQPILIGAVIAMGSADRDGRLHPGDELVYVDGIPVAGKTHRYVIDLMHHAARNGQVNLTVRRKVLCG

IL16_4, Q14005 = conditions: plain residues with an end cap or a label only (N-terminal biotin on a linker: ado-ado)
Chain of IL16_4, Q14005 (Q14005 1229-1329): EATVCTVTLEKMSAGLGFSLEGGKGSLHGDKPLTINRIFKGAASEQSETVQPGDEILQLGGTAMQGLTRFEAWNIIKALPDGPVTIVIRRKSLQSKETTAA

NHERF4_2, Q86UT5 = conditions: plain residues with an end cap or a label only (N-terminal biotin on a linker: ado-ado)
Chain of NHERF4_2, Q86UT5 (Q86UT5 220-308): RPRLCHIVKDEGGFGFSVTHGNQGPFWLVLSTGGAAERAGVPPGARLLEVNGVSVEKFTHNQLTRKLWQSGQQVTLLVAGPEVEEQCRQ

PARD3B_1, Q8TEW8 = target: T1, PARD3B_1, Q8TEW8
T1 sequence (Q8TEW8 196-299, limits assumed, looked up): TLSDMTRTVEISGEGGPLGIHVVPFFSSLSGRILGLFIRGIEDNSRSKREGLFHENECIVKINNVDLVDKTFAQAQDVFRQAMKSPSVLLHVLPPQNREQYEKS

SYNJ2BP, P57105 = target: T2, SYNJ2BP, P57105
T2 sequence (P57105 8-110, limits assumed, looked up): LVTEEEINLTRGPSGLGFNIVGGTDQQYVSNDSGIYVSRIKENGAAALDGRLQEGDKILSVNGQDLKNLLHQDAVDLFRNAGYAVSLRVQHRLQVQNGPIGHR

PTPN3, P26045 = conditions: modified: O-phospho-L-serine at S732 (position -3 from the C-terminal residue); O-phospho-L-threonine at T734 (position -1 from the C-terminal residue)
Chain of PTPN3, P26045 (P26045 505-587): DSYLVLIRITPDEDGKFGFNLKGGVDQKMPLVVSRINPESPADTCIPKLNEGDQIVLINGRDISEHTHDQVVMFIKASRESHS

SNTB1, Q13884 = conditions: modified: O-phospho-L-serine at S732 (position -3 from the C-terminal residue); phosphorylated residue at T734 (position -1 from the C-terminal residue)
Chain of SNTB1, Q13884 (Q13884 107-196): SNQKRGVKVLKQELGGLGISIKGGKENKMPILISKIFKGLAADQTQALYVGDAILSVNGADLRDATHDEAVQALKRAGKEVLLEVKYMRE

SNX27, Q96L92 = conditions: modified: phosphorylated residue at S732 (position -3 from the C-terminal residue); phosphorylated residue at T734 (position -1 from the C-terminal residue)
SCRIB_1, Q14160 = conditions: modified: O-phospho-L-serine at S732 (position -3 from the C-terminal residue); O-phospho-L-threonine at T734 (position -1 from the C-terminal residue)
Chain of SCRIB_1, Q14160 (Q14160 718-814): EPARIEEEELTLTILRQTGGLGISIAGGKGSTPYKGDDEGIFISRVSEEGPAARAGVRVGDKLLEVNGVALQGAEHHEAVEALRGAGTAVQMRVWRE

PDZRN4_1, Q6ZMN7 = conditions: modified: O-phospho-L-serine at S732 (position -3 from the C-terminal residue); O-phospho-L-threonine at T734 (position -1 from the C-terminal residue)
Chain of PDZRN4_1, Q6ZMN7 (Q6ZMN7 213-318): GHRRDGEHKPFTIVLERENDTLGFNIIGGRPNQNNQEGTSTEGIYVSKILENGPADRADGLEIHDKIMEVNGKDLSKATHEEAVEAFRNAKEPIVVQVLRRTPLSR

MAGI2_2, Q86UL8 = target: MAGI2_2, Q86UL8
Chain of MAGI2_2, Q86UL8 (Q86UL8 410-522): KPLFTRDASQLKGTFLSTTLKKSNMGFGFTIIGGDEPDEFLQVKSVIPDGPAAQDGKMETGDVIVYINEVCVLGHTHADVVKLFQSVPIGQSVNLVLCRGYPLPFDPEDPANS

HTRA1, Q92743 = conditions: modified: phosphorylated residue at T733 (position -2 from the C-terminal residue); phosphorylated residue at T734 (position -1 from the C-terminal residue)
Chain of HTRA1, Q92743 (Q92743 365-480): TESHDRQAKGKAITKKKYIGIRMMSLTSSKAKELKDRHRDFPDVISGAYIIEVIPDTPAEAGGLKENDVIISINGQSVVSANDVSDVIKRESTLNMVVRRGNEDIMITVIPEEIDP

SNTA1, Q13424 = conditions: modified: O-phospho-L-serine at S732 (position -3 from the C-terminal residue); O-phospho-L-threonine at T734 (position -1 from the C-terminal residue)
Chain of SNTA1, Q13424 (Q13424 84-171): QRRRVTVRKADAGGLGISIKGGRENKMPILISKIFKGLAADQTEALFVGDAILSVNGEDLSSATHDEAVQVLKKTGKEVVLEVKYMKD

SNTG2, Q9NY99 = conditions: modified: phosphorylated residue at S732 (position -3 from the C-terminal residue); phosphorylated residue at T734 (position -1 from the C-terminal residue)
Chain of SNTG2, Q9NY99 (Q9NY99 70-159): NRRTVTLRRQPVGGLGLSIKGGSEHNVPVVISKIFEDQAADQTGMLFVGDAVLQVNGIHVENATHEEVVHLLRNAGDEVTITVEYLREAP

ARHGEF12, Q9NZN5-2 = conditions: modified: phosphorylated residue at S732 (position -3 from the C-terminal residue); phosphorylated residue at T734 (position -1 from the C-terminal residue)
Chain of ARHGEF12, Q9NZN5-2 (Q9NZN5 other isoform, or with tags, fused parts or gaps): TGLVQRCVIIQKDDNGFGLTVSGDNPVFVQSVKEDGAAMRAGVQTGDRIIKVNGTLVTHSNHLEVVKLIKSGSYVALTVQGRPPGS

MAGI3_2, Q5TCQ9 = conditions: modified: O-phospho-L-serine at S732 (position -3 from the C-terminal residue); O-phospho-L-threonine at T734 (position -1 from the C-terminal residue)
Chain of MAGI3_2, Q5TCQ9 (Q5TCQ9 398-503): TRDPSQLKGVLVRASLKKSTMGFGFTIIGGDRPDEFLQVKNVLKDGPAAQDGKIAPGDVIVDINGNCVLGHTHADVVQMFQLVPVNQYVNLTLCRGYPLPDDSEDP

PDZD7_3, Q9H5P4 = conditions: modified: phosphorylated residue at S732 (position -3 from the C-terminal residue); phosphorylated residue at T733 (position -2 from the C-terminal residue); phosphorylated residue at T734 (position -1 from the C-terminal residue)
Chain of PDZD7_3, Q9H5P4 (Q9H5P4 858-953): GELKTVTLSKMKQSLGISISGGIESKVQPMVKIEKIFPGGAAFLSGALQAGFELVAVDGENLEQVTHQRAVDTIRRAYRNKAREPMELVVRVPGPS

MAST2, Q6P0Q8 = target: MAST2, Q6P0Q8
AHNAK1, Q09666 = conditions: plain residues with an end cap or a label only
Chain of AHNAK1, Q09666 (Q09666 2-98): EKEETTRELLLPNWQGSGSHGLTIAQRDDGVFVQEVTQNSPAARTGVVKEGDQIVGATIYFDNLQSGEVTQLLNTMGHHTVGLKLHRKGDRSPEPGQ

APBA1_2, Q02410 = conditions: plain residues with an end cap or a label only
Chain of APBA1_2, Q02410 (Q02410 742-822): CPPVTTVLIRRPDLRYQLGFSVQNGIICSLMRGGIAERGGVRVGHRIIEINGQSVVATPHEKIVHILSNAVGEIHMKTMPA

LIN7B, Q9HAP6 = target: T3, LIN7B, Q9HAP6; conditions: plain residues with an end cap or a label only (N-terminal biotin on a linker: ado-ado)
T3 sequence (Q9HAP6 88-185, limits assumed, looked up): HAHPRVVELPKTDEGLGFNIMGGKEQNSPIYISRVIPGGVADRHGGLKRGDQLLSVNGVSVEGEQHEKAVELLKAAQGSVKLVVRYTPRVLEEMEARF

NHERF3_1, Q5T2W1 = target: T4, NHERF3_1, Q5T2W1; conditions: plain residues with an end cap or a label only (N-terminal biotin on a linker: ado-ado)
T4 sequence (Q5T2W1 4-100, limits assumed, looked up): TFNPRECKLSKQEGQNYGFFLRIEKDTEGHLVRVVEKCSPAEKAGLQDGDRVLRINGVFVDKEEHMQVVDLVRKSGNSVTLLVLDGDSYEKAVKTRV

MPP6, Q9NZW5 = target: T5, MPP6, Q9NZW5; conditions: plain residues with an end cap or a label only (N-terminal biotin on a linker: ado-ado)
T5 sequence (Q9NZW5 125-219, limits assumed, looked up): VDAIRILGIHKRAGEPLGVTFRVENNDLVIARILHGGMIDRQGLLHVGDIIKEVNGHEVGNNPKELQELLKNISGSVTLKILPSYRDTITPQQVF

DLG1_2, Q12959 = conditions: plain residues with an end cap or a label only (N-terminal biotin on a linker: ado-ado)
Chain of DLG1_2, Q12959 (Q12959 314-412): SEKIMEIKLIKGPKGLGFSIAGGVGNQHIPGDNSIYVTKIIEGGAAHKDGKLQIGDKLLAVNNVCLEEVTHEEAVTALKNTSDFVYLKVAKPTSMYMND

DLG2_3, Q15700 = conditions: plain residues with an end cap or a label only (N-terminal biotin on a linker: ado-ado)
GRASP, Q7Z6J2 = conditions: plain residues with an end cap or a label only (N-terminal biotin on a linker: ado-ado)
Chain of GRASP, Q7Z6J2 (Q7Z6J2 96-193): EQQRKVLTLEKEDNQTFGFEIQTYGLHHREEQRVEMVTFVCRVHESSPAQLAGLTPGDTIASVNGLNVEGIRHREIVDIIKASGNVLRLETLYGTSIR

NHERF4_4, Q86UT5 = conditions: plain residues with an end cap or a label only (N-terminal biotin on a linker: ado-ado)
Chain of NHERF4_4, Q86UT5 (Q86UT5 464-550): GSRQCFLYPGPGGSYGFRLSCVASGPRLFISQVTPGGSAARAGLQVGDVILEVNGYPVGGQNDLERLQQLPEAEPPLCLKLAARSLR

APBA2_1, Q99767 = conditions: plain residues with an end cap or a label only
Chain of APBA2_1, Q99767 (Q99767 565-653): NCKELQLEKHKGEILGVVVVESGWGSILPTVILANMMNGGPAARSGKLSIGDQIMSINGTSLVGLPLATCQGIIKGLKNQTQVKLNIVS

[1] = plain residues with an end cap or a label only (N-terminal biotin on a linker: ado-ado)
[2] = modified: O-phospho-L-serine at S732 (position -3 from the C-terminal residue), O-phospho-L-threonine at T734 (position -1 from the C-terminal residue)

Chain of APBA1_1, Q02410 (Q02410 other isoform, or with tags, fused parts or gaps): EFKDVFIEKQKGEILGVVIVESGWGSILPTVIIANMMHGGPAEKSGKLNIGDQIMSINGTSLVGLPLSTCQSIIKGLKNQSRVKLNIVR

Binder: RRSQSRESQC [a stretch of P03148, P03148]
- pKd (APBA1_1, Q02410): below the threshold

Binder: NTALVESEDL [PALLS, Q8WX93]
- pKd (SCRIB_3, Q14160; [1]): 3.73
- pKd (PARD3_3, Q8TEW0): 3.61
- pKd (FRMPD4, Q14CM0): 3.65
- pKd (MAGI2_4, Q86UL8): 3.59
- pKd (IL16_4, Q14005): 3.57
- pKd (NHERF4_2, Q86UT5): 3.48
- pKd (PARD3B_1, Q8TEW8; [1]): 3.58
- pKd (SYNJ2BP, P57105; [1]): 3.49

Binder: RVRKLPSTTL [a stretch of Q15418, Q15418]
- pKd (SCRIB_3, Q14160; [2]): below the threshold
- pKd (PTPN3, P26045): below the threshold
- pKd (SNTB1, Q13884): below the threshold
- pKd (SNX27, Q96L92): below the threshold
- pKd (SCRIB_1, Q14160): below the threshold
- pKd (PDZRN4_1, Q6ZMN7): below the threshold
- pKd (MAGI2_2, Q86UL8; modified: O-phospho-L-threonine at T734 (position -1 from the C-terminal residue), phosphorylated residue at S732 (position -3 from the C-terminal residue)): below the threshold
- pKd (HTRA1, Q92743): below the threshold
- pKd (PARD3B_1, Q8TEW8; modified: phosphorylated residue at S732 (position -3 from the C-terminal residue), phosphorylated residue at T733 (position -2 from the C-terminal residue), phosphorylated residue at T734 (position -1 from the C-terminal residue)): below the threshold
- pKd (SNTA1, Q13424): below the threshold
- pKd (SYNJ2BP, P57105; [2]): below the threshold
- pKd (SNTG2, Q9NY99): below the threshold
- pKd (ARHGEF12, Q9NZN5-2): below the threshold
- pKd (MAGI3_2, Q5TCQ9): below the threshold
- pKd (PDZD7_3, Q9H5P4): below the threshold
- pKd (MAST2, Q6P0Q8; [2]): below the threshold

Binder: RRSQSRESQC [a stretch of P03146, P03146]
- pKd (AHNAK1, Q09666): below the threshold

Binder: RRSQSRESQC [a stretch of P03149, P03149]
- pKd (APBA1_2, Q02410): below the threshold

Binder: VKQYADVEGF [HNRNPK, P61978]
- pKd (LIN7B, Q9HAP6): 3.61
- pKd (NHERF3_1, Q5T2W1): 3.53
- pKd (MPP6, Q9NZW5): 3.7
- pKd (DLG1_2, Q12959): 3.72
- pKd (DLG2_3, Q15700): 3.55
- pKd (IL16_4, Q14005): 3.51
- pKd (MAGI2_2, Q86UL8; [1]): 3.56
- pKd (GRASP, Q7Z6J2): 3.76
- pKd (NHERF4_4, Q86UT5): 3.72
- pKd (MAST2, Q6P0Q8; [1]): 3.87

Binder: RRSQSRESQC [a stretch of P69706, P69706]
- pKd (APBA2_1, Q99767): below the threshold
